# Reference: patent publication US12679878B2, “CRF2 receptor agonists and their use in therapy” (SANOFI, priority 2020, dated 2026)
# Starred links: 1 amine or outer side, 2 acyl side, 3 side chain; linkers in the order of their positions; H or OH if unused. Non-standard residues stand in square brackets, D forms with d. Groups on a side chain read outwards from the residue. No end group written: not given here. *: point of attachment. C20 diacid = O=C(O)CCCCCCCCCCCCCCCCCCC(=O)*; C16 diacid = O=C(O)CCCCCCCCCCCCCCC(=O)*; γGlu = O=C(O)[C@H](CCC(=O)[*:2])N[*:1]; Palmitoyl = CCCCCCCCCCCCCCCC(=O)*; AEEA = NCCOCCOCC(=O)O; Aib = CC(C)(N)C(=O)O
# T1: CRF1R receptor (anti-target) (UniProt P34998 24-415, limits assumed)
# T1 sequence (looked up): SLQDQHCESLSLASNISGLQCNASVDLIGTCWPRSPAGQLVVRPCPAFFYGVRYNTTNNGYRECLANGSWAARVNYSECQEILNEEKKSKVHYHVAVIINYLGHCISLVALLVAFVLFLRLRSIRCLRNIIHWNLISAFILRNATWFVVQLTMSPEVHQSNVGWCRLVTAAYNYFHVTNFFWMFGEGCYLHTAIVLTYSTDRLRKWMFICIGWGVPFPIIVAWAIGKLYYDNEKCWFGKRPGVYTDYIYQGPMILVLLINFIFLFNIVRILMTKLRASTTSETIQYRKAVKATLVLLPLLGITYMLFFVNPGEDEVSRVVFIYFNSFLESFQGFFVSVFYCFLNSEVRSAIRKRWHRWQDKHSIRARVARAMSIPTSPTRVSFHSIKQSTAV
# Molecular target: T1, CRF1R receptor (anti-target)
# Test: cell-based or functional assay
Binder,"EC50 [nM] 0% HSA (cAMP, HTRF) [nM]",Emax (%) (100% = Sauvagine at 100 nM)
IVLSLD[dV]PIGLK([γGlu-C16 diacid])QILLKQERQKK[Aib]REQAEKNKRILERV-NH2 (N-terminus assumed; SMILES CC[C@H](C)[C@H](N)C(=O)N[C@H](C(=O)N[C@@H](CC(C)C)C(=O)N[C@@H](CO)C(=O)N[C@@H](CC(C)C)C(=O)N[C@@H](CC(=O)O)C(=O)N[C@@H](C(=O)N1CCC[C@H]1C(=O)N[C@H](C(=O)NCC(=O)N[C@@H](CC(C)C)C(=O)N[C@@H](CCCCNC(=O)CC[C@H](NC(=O)CCCCCCCCCCCCCCC(=O)O)C(=O)O)C(=O)N[C@@H](CCC(N)=O)C(=O)N[C@H](C(=O)N[C@@H](CC(C)C)C(=O)N[C@@H](CC(C)C)C(=O)N[C@@H](CCCCN)C(=O)N[C@@H](CCC(N)=O)C(=O)N[C@@H](CCC(=O)O)C(=O)N[C@@H](CCCNC(=N)N)C(=O)N[C@@H](CCC(N)=O)C(=O)N[C@@H](CCCCN)C(=O)N[C@@H](CCCCN)C(=O)NC(C)(C)C(=O)N[C@@H](CCCNC(=N)N)C(=O)N[C@@H](CCC(=O)O)C(=O)N[C@@H](CCC(N)=O)C(=O)N[C@@H](C)C(=O)N[C@@H](CCC(=O)O)C(=O)N[C@@H](CCCCN)C(=O)N[C@@H](CC(N)=O)C(=O)N[C@@H](CCCCN)C(=O)N[C@@H](CCCNC(=N)N)C(=O)N[C@H](C(=O)N[C@@H](CC(C)C)C(=O)N[C@@H](CCC(=O)O)C(=O)N[C@@H](CCCNC(=N)N)C(=O)N[C@H](C(N)=O)C(C)C)[C@@H](C)CC)[C@@H](C)CC)[C@@H](C)CC)C(C)C)C(C)C) [peptide of SEQ ID NO: 196],> 100,16.9
IVLSLD[dV]PIKLK([γGlu-C16 diacid])QILLKQARQK[Aib]QRAQAEKNKRILERV-NH2 (N-terminus assumed; SMILES CC[C@H](C)[C@H](N)C(=O)N[C@H](C(=O)N[C@@H](CC(C)C)C(=O)N[C@@H](CO)C(=O)N[C@@H](CC(C)C)C(=O)N[C@@H](CC(=O)O)C(=O)N[C@@H](C(=O)N1CCC[C@H]1C(=O)N[C@H](C(=O)N[C@@H](CCCCN)C(=O)N[C@@H](CC(C)C)C(=O)N[C@@H](CCCCNC(=O)CC[C@H](NC(=O)CCCCCCCCCCCCCCC(=O)O)C(=O)O)C(=O)N[C@@H](CCC(N)=O)C(=O)N[C@H](C(=O)N[C@@H](CC(C)C)C(=O)N[C@@H](CC(C)C)C(=O)N[C@@H](CCCCN)C(=O)N[C@@H](CCC(N)=O)C(=O)N[C@@H](C)C(=O)N[C@@H](CCCNC(=N)N)C(=O)N[C@@H](CCC(N)=O)C(=O)N[C@@H](CCCCN)C(=O)NC(C)(C)C(=O)N[C@@H](CCC(N)=O)C(=O)N[C@@H](CCCNC(=N)N)C(=O)N[C@@H](C)C(=O)N[C@@H](CCC(N)=O)C(=O)N[C@@H](C)C(=O)N[C@@H](CCC(=O)O)C(=O)N[C@@H](CCCCN)C(=O)N[C@@H](CC(N)=O)C(=O)N[C@@H](CCCCN)C(=O)N[C@@H](CCCNC(=N)N)C(=O)N[C@H](C(=O)N[C@@H](CC(C)C)C(=O)N[C@@H](CCC(=O)O)C(=O)N[C@@H](CCCNC(=N)N)C(=O)N[C@H](C(N)=O)C(C)C)[C@@H](C)CC)[C@@H](C)CC)[C@@H](C)CC)C(C)C)C(C)C) [peptide of SEQ ID NO: 197],> 100,24.4
IVLSLD[dV]PTKLK([γGlu-Palmitoyl])QKLLKQERQRKEREQAEKNKRILERV-NH2 (N-terminus assumed; SMILES CCCCCCCCCCCCCCCC(=O)N[C@@H](CCC(=O)NCCCC[C@H](NC(=O)[C@H](CC(C)C)NC(=O)[C@H](CCCCN)NC(=O)[C@@H](NC(=O)[C@@H]1CCCN1C(=O)[C@H](NC(=O)[C@H](CC(=O)O)NC(=O)[C@H](CC(C)C)NC(=O)[C@H](CO)NC(=O)[C@H](CC(C)C)NC(=O)[C@@H](NC(=O)[C@@H](N)[C@@H](C)CC)C(C)C)C(C)C)[C@@H](C)O)C(=O)N[C@@H](CCC(N)=O)C(=O)N[C@@H](CCCCN)C(=O)N[C@@H](CC(C)C)C(=O)N[C@@H](CC(C)C)C(=O)N[C@@H](CCCCN)C(=O)N[C@@H](CCC(N)=O)C(=O)N[C@@H](CCC(=O)O)C(=O)N[C@@H](CCCNC(=N)N)C(=O)N[C@@H](CCC(N)=O)C(=O)N[C@@H](CCCNC(=N)N)C(=O)N[C@@H](CCCCN)C(=O)N[C@@H](CCC(=O)O)C(=O)N[C@@H](CCCNC(=N)N)C(=O)N[C@@H](CCC(=O)O)C(=O)N[C@@H](CCC(N)=O)C(=O)N[C@@H](C)C(=O)N[C@@H](CCC(=O)O)C(=O)N[C@@H](CCCCN)C(=O)N[C@@H](CC(N)=O)C(=O)N[C@@H](CCCCN)C(=O)N[C@@H](CCCNC(=N)N)C(=O)N[C@H](C(=O)N[C@@H](CC(C)C)C(=O)N[C@@H](CCC(=O)O)C(=O)N[C@@H](CCCNC(=N)N)C(=O)N[C@H](C(N)=O)C(C)C)[C@@H](C)CC)C(=O)O) [peptide of SEQ ID NO: 223],82.8,57.3
IVLSLD[dV]PTKLK([AEEA-AEEA-γGlu-C20 diacid])KKLLKQERKR[Aib]EREKAEKAARILERV-NH2 [peptide of SEQ ID NO: 224],> 100,52.6
IVLSLD[dV]PTKLK([γGlu-Palmitoyl])QKLLKQERQRKERE[Aib]AEKNKRILERV-NH2 [peptide of SEQ ID NO: 225],24.2,58.9
IVLSLD[dV]PIGLK([γGlu-Palmitoyl])QKLLKQQRQRKERQQAEKNKRILERV-NH2 (N-terminus assumed; SMILES CCCCCCCCCCCCCCCC(=O)N[C@@H](CCC(=O)NCCCC[C@H](NC(=O)[C@H](CC(C)C)NC(=O)CNC(=O)[C@@H](NC(=O)[C@@H]1CCCN1C(=O)[C@H](NC(=O)[C@H](CC(=O)O)NC(=O)[C@H](CC(C)C)NC(=O)[C@H](CO)NC(=O)[C@H](CC(C)C)NC(=O)[C@@H](NC(=O)[C@@H](N)[C@@H](C)CC)C(C)C)C(C)C)[C@@H](C)CC)C(=O)N[C@@H](CCC(N)=O)C(=O)N[C@@H](CCCCN)C(=O)N[C@@H](CC(C)C)C(=O)N[C@@H](CC(C)C)C(=O)N[C@@H](CCCCN)C(=O)N[C@@H](CCC(N)=O)C(=O)N[C@@H](CCC(N)=O)C(=O)N[C@@H](CCCNC(=N)N)C(=O)N[C@@H](CCC(N)=O)C(=O)N[C@@H](CCCNC(=N)N)C(=O)N[C@@H](CCCCN)C(=O)N[C@@H](CCC(=O)O)C(=O)N[C@@H](CCCNC(=N)N)C(=O)N[C@@H](CCC(N)=O)C(=O)N[C@@H](CCC(N)=O)C(=O)N[C@@H](C)C(=O)N[C@@H](CCC(=O)O)C(=O)N[C@@H](CCCCN)C(=O)N[C@@H](CC(N)=O)C(=O)N[C@@H](CCCCN)C(=O)N[C@@H](CCCNC(=N)N)C(=O)N[C@H](C(=O)N[C@@H](CC(C)C)C(=O)N[C@@H](CCC(=O)O)C(=O)N[C@@H](CCCNC(=N)N)C(=O)N[C@H](C(N)=O)C(C)C)[C@@H](C)CC)C(=O)O) [peptide of SEQ ID NO: 226],96.2,84
